Experimental data from the supplement of paper PMC9112550, “Optimization of the antimicrobial peptide Bac7 by deep mutational scanning” (BMC Biology, 2022).

System: Escherichia coli TOP10
Test: shrunken log2 fold change of peptide-encoding DNA abundance (4.5 h post-induction vs induction); higher = less antimicrobial activity (less host growth inhibition)
Conditions: time post-induction: 4.5 h; library: site-saturation at positions 5, 18, 19, 20
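Further: peptides expressed intracellularly from a pBAD plasmid library in pooled LB shake-flask culture, induced with 0.3% L-arabinose, DNA abundance read by NGS, three biological replicates, DESeq2 with apeglm shrinkage.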

| Sequence | shrunken log2 fold change |
| --- | --- |
| RRIRTRPPRLPRPRPRPFMTPRP | -0.12 |
| RRIRDRPPRLPRPRPRPTAQPRP | 0.0542 |
| RRIRYRPPRLPRPRPRPFPCPRP | -0.467 |
| RRIRDRPPRLPRPRPRPYNIPRP | -0.529 |
| RRIRYRPPRLPRPRPRPNLTPRP | -0.372 |
| RRIRGRPPRLPRPRPRPCGFPRP | 1.25 |
| RRIRIRPPRLPRPRPRPWYDPRP | -0.0891 |
| RRIRERPPRLPRPRPRPAMTPRP | 0.0328 |
| RRIRRRPPRLPRPRPRPTQIPRP | -0.0829 |
| RRIRYRPPRLPRPRPRPNEVPRP | -0.00663 |
| RRIRFRPPRLPRPRPRPDYDPRP | -0.0802 |
| RRIRVRPPRLPRPRPRPGVIPRP | 0.0193 |
| RRIRDRPPRLPRPRPRPQYMPRP | 0.0516 |
| RRIRPRPPRLPRPRPRPHANPRP | -0.0736 |
| RRIRNRPPRLPRPRPRPWMWPRP | -0.0133 |
| RRIRARPPRLPRPRPRPIRIPRP | 0.0541 |
| RRIRIRPPRLPRPRPRPMKLPRP | -0.519 |
| RRIRHRPPRLPRPRPRPINGPRP | -0.437 |
| RRIRERPPRLPRPRPRPGYVPRP | -0.227 |
| RRIRVRPPRLPRPRPRPKWSPRP | 0.0979 |
| RRIRGRPPRLPRPRPRPVEYPRP | -0.0779 |
| RRIRQRPPRLPRPRPRPEEPPRP | 0.0685 |
| RRIRIRPPRLPRPRPRPANNPRP | -0.449 |

| Sequence | shrunken log2 fold change |
| --- | --- |
| RRIRCRPPRLPRPRPRPACQPRP | 0.305 |
| RRIRVRPPRLPRPRPRPHMMPRP | -0.659 |
| RRIRRRPPRLPRPRPRPAHVPRP | 0.0907 |
| RRIRIRPPRLPRPRPRPPAGPRP | 0.518 |
| RRIRIRPPRLPRPRPRPGFDPRP | 0.027 |
| RRIRWRPPRLPRPRPRPHYWPRP | -0.0704 |
| RRIRSRPPRLPRPRPRPTMSPRP | -0.0133 |
| RRIRMRPPRLPRPRPRPCTQPRP | -0.111 |
| RRIRIRPPRLPRPRPRPEIAPRP | -0.141 |
| RRIRARPPRLPRPRPRPQMCPRP | 0.00812 |
| RRIRCRPPRLPRPRPRPQEAPRP | 0.0141 |
| RRIRGRPPRLPRPRPRPGGCPRP | 1.19 |
| RRIRMRPPRLPRPRPRPSMQPRP | 0.345 |
| RRIRMRPPRLPRPRPRPRISPRP | 0.395 |
| RRIRARPPRLPRPRPRPFKFPRP | 0.0771 |
| RRIRPRPPRLPRPRPRPMGRPRP | -0.0125 |
| RRIRRRPPRLPRPRPRPGLVPRP | 0.279 |
| RRIRRRPPRLPRPRPRPLRCPRP | 0.714 |
| RRIRCRPPRLPRPRPRPRALPRP | 0.113 |
| RRIRGRPPRLPRPRPRPVYDPRP | 0.32 |
| RRIRMRPPRLPRPRPRPWTFPRP | 0.055 |
| RRIRLRPPRLPRPRPRPQMWPRP | 0.0549 |
| RRIRDRPPRLPRPRPRPRMMPRP | 0.312 |

| Sequence | shrunken log2 fold change |
| --- | --- |
| RRIRRRPPRLPRPRPRPNMGPRP | -0.108 |
| RRIRKRPPRLPRPRPRPDSGPRP | -0.00213 |
| RRIRSRPPRLPRPRPRPCHNPRP | -0.364 |
| RRIRRRPPRLPRPRPRPRKVPRP | 0.602 |
| RRIRKRPPRLPRPRPRPVTFPRP | -0.126 |
| RRIRYRPPRLPRPRPRPAEFPRP | -0.266 |
| RRIRSRPPRLPRPRPRPTAWPRP | 0.47 |
| RRIRYRPPRLPRPRPRPQNQPRP | -0.562 |
| RRIRTRPPRLPRPRPRPCTAPRP | -0.0896 |
| RRIRRRPPRLPRPRPRPPPSPRP | 1.21 |
| RRIRDRPPRLPRPRPRPQWCPRP | 0.0917 |
| RRIRVRPPRLPRPRPRPMPGPRP | 0.18 |
| RRIRQRPPRLPRPRPRPPVWPRP | 0.223 |
| RRIRSRPPRLPRPRPRPMNCPRP | -0.0191 |
| RRIRVRPPRLPRPRPRPEHQPRP | -0.477 |
| RRIRTRPPRLPRPRPRPLNHPRP | -0.204 |
| RRIRIRPPRLPRPRPRPCQYPRP | -1.06 |
| RRIRHRPPRLPRPRPRPIYQPRP | -0.316 |
| RRIRSRPPRLPRPRPRPIQIPRP | -0.0243 |
| RRIRGRPPRLPRPRPRPGFVPRP | 0.768 |
| RRIRWRPPRLPRPRPRPIFWPRP | -0.00424 |
| RRIRCRPPRLPRPRPRPMRYPRP | 0.0209 |
| RRIRIRPPRLPRPRPRPFTQPRP | -0.71 |

| Sequence | shrunken log2 fold change |
| --- | --- |
| RRIRDRPPRLPRPRPRPFMVPRP | 0.00751 |
| RRIRLRPPRLPRPRPRPWYWPRP | 0.134 |
| RRIRLRPPRLPRPRPRPIYWPRP | -0.0187 |
| RRIRCRPPRLPRPRPRPVRWPRP | 0.952 |
| RRIRGRPPRLPRPRPRPPIIPRP | -0.0886 |
| RRIRGRPPRLPRPRPRPHEFPRP | 0.144 |
| RRIRKRPPRLPRPRPRPFPYPRP | -0.135 |
| RRIRTRPPRLPRPRPRPNYEPRP | -0.682 |
| RRIRYRPPRLPRPRPRPVWWPRP | 0.113 |
| RRIRMRPPRLPRPRPRPLKMPRP | 0.146 |
| RRIRFRPPRLPRPRPRPSEGPRP | 0.0716 |
| RRIRPRPPRLPRPRPRPMNSPRP | -0.125 |
| RRIRQRPPRLPRPRPRPAHFPRP | 0.464 |
| RRIRERPPRLPRPRPRPQAIPRP | -0.0062 |
| RRIRYRPPRLPRPRPRPGKFPRP | -0.0427 |
| RRIRSRPPRLPRPRPRPGKKPRP | -0.0502 |
| RRIRYRPPRLPRPRPRPLNYPRP | -0.0845 |
| RRIRLRPPRLPRPRPRPGCIPRP | -0.346 |
| RRIRTRPPRLPRPRPRPMMRPRP | 0.933 |
| RRIRVRPPRLPRPRPRPSFFPRP | -0.2 |
| RRIRTRPPRLPRPRPRPLAPPRP | 0.263 |
| RRIRHRPPRLPRPRPRPHAQPRP | 0.0272 |
